Results taken from ChEMBL document CHEMBL1121725, “Interaction of 1-(5-phospho-beta-D-arabinofuranosyl)-5-substituted-uracils with thymidylate synthetase: mechanism-based inhibition by 1-(5-phospho-beta-D-arabinosyl)-5-fluorouracil” (J Med Chem, 1981).

Target: thymidylate synthase (Lactobacillus casei)
Experiment: Compound was evaluated for the inhibition of dTMP synthetase with respect to dUMP.

B1: Thymidylate synthase (Escherichia coli), C3SWJ7 (protein)
chain: MKQYLELMQKVLDEGTQKNDRTGTGTLSIFGHQMRFNLQDGFPLVTTKRCHLRSIIHELLWFLQGDTNIAYLHENNVTIWDEWADENGDLGPVYGKQWRAWPTPDGRHIDQITTVLNQLKNDPDSRRIIVSAWNVGELDKMALAPCHAFFQFYVADGKLSCQLYQRSCDVFLGLPFNIASYALLVHMMAQQCDLEVGDFVWIGGDTHLYSNHMDQTHLQLSREPRPLPKLIIKRKPESIFDYRFEDFEIEGYDPHPGIKAPVAI
Question: How did the Km turn out when B1 was run?
Answer: 2 µM
